Target: bACE2_(Ra5538)-Fc (Rhinolophus affinis)
Test: BLI

Substance: SARS-CoV-2-RBD-monomer (from UniProt P0DTC2) (domain or fragment)
- Kd: 0.705 µM

Source: PMC11908486
